{
  "source": "patent US20230406912A1",
  "about": "“HUMANISED ANTIBODIES AGAINST PATHOGENIC FUNGI” (priority 2020, published 2023)",
  "key": {"[1]": {"system": "C. auris adhesion to HeLa cells", "assay": "Adhesion assay, fungal adhesion to HeLa cell monolayer", "assay_type": "cell-based", "conditions": "12 μg/ml, HeLa:yeast 1:1, 1 hour", "protocol": "In order to investigate the protective effect of hmAb 2G8 H5/K1 in preventing fungal adhesion to human cells commonly known to be preferred targets, C. auris cells were left adhering to a monolayer of HeLa cells together with the humanised mAb H5/K1, to reproduce an infection-medication scenario. 1.0×10^4 cervical cancer cells HeLa were suspended in RPMI+*10% FBS (pH 7) and plated in a 96-well plate for 2 hours at 37° C.+5% CO2. After incubation, the cells not attached at the bottom of the wells were washed away and 1.0×10^4 cells of C. auris suspended in RPMI+MOPS (0.165 M, pH 7) were added to reach a 1:1 ratio HeLa:yeast cells. Together with the yeast, 12 μg/ml of the humanised mAb 2G8 were added. PBS was used in the control sample. The plate was left at 37° C. for 1 hour and after washing 5 times, HeLa cells were lysed with PBS 0.1% Triton X100 (15 min. RT). The suspension was plated in PDA plate and incubated at 37° C. for 48 hours. This experiment has been repeated two times in triplicate."}, "C. auris": {"system": "C. auris", "assay": "Growth inhibition assay (CFU count)", "assay_type": "cell-based", "conditions": "18 h at 37° C.", "protocol": "The growth inhibitory activity of humanised mAb 2G8 H5/K1 was tested as reported in W. Magliani et al, Nature Biotech. 1997; 15:155-158 with some modifications. In brief, 150-250 cells of C. auris in 10 μl of PBS were incubated with 100 μl of humanised mAb 2G8 at 250, 100 and 50 μg/ml (each concentration was tested in triplicate) and incubated for 18 h at 37° C. The inhibition was evaluated by seeding the yeast on PDA. The plates were incubated at 37° C. for 48 h and the inhibition was calculated by count of the CFU. The assay was performed in triplicate."}, "[2]": {"assay": "ELISA assay on laminarin-coated plates", "assay_type": "binding", "protocol": "The activity of the purified antibody was then tested by ELISA assay. 96-well plates were coated with 50 μg/ml Laminarin (Sigma-Aldrich, L9634) in 0.05 M carbonate buffer pH 9.6 overnight at 4° C. Nonspecific interactions were blocked with 100 μL/well blocking solution, 3% (w/v) BSA in PBS-Tween 20 (8 g/L NaCl, 0.2 g/L KH2PO4, 2.9 g/L Na2HPO4·12 H2O, 0.2 g/L KCI, 0.05% (v/v) Tween 20, pH 7.4) at 37° C. for 1 h. The plates were then incubated with decreasing concentrations of hmAb 2G8_first approach (comparative purpose) (from 3.12 μg/ml to 0.003 μg/ml, each concentration was tested in triplicate) in blocking solution for 2 h at 37° C. At the same temperature and for the same time, 100 μL Goat anti-human-HRP diluted 1:1000 in blocking solution was poured in each well. After every single passage the plates were washed 5 times with PBS-Tween 20. To reveal the binding, 100 μl of 5 mg-ABTS tablet (Roche Diagnostics) dissolved in 12 ml of sodium citrate (0.05 M, pH 3) and supplemented with 1:1000 dilution hydrogen peroxide (Carlo Erba) was added and after 15, 30, 45 and 60 min the absorbance at 405 nm was measured. For the whole measuring time the plates were left in the dark. IC50 analysis of ELISA test was performed with Prism. The TEST was performed in triplicate.\nThe surnatants collected from the obtained humanised mAb were tested in ELISA test.\nFour supernatants from hmAb according to the invention (H5/K3; H5/K1; H5/K7; H5/K5) were purified to confirm the data. 8 scalar dilutions, starting from 5 μg/ml, were tested.\nThe purified humanised mAb 2G8 H5/K1 was then tested in an ELISA assay using laminarin as a target."}, "[3]": {"system": "β-1,3-glucans on the surface of C. auris", "assay": "Recognition of C. auris by flow cytometry and confocal microscopy", "assay_type": "cell-based", "conditions": "12 μg/ml mAb", "protocol": "From an overnight inoculum, C. auris cells were washed with RPMI+MOPS (0.165 M, pH 7) and 3.0×10^6 cells were pelleted, suspended in Phosphate buffered saline (PBS) containing 3% (w/v) BSA (Bovine Serum Albumin—Sigma Aldrich) and put in contact with 12 μg/ml of the humanised mAb 2G8 for 1 hour at room temperature. The cells were then washed with PBS and marked with anti-human IgG FITC antibody 1:150 in PBS+3% BSA for 1 hour. The cells were then washed and fixed with paraformaldehyde 4% in PBS 1 hour at 4° C. After fixing and washing with PBS, the pellet was suspended in 400 μl of PBS and splitted in two tubes. The samples were analysed using flow cytometry and confocal microscopy, respectively.\nA Flow cytometer (FACScanto II, BDBioscences, Erembodegem, Belgium), equipped with three lasers (488 nm, 633 nm, 405 nm) was employed to collect and quantitate FITC fluorescence from different samples. Both autofluorescence and fluorescence derived from a specific binding of FITC-conjugated secondary Ab were quantitated by Flow Cytometry. […] The histogram CTRL evaluates the background from aspecific binding of FITC-conjugated secondary Ab, enabling to fix the threshold defining the positivity for the humanised mAb H5/K1 (treated). 97% of events express the antigen (treated panel). The expression was precisely quantitated by MFI values: the fold of increase is 164, when compared to control (FIG. 12B). Light grey events in FIG. 12A histograms represent cells outside the scatter area mainly occupied by the cells: i.e. aggregates or increase in cell size (as during senescence)."}},
  "data": [
    {"molecule": "hmAb 2G8 H5/K1: humanised anti β-1,3 glucan mAb; heavy chain variable region H5 (SEQ ID NO: 22), light chain variable region K1 (SEQ ID NO: 15) (antibody, V domains shown, VH-H5; VL-K1) VH: QVQLQQSGAELKKPGASVKISCKASGYTLSSYWLEWVRQRPGQGLEWIGEILPGSGSTNYNEKFKGRATFTADTSTNTAYMELSSLTSEDSAVYYCAREGWYFDVWGQGTTVTVSS VL: DVVMTQSPLSLPVTLGQPASISCRSSQSLLYSNGNTHLNWFQQRPGQSPRRLIYLVSNRDSGVPDRFSGSGSGTDFTLKISRVEAEDVGVYYCVQGTHFPYTFGGGTKLEIK", "values": [
      {"measurement": "reduction in fungal adhesion to mammalian cells", "setting": "[1]", "value": 51.5, "unit": "%"},
      {"measurement": "inhibition of yeast cell growth", "setting": "C. auris; 50 μg/ml", "value": "over 60%"},
      {"measurement": "inhibition of yeast cell growth", "setting": "C. auris; 100 μg/ml", "value": "over 70%"},
      {"measurement": "inhibition of yeast cell growth", "setting": "C. auris; 250 μg/ml", "value": "over 70%"},
      {"measurement": "activity / affinity compared with murine 2G8", "setting": "[2]; ELISA", "value": "performs better than the original murine one"},
      {"measurement": "Abs 405 nm", "setting": "[2]; ELISA of supernatants of humanised mAbs", "value": 3.48},
      {"measurement": "performance in ELISA assay of purified hmAbs", "setting": "[2]; purified supernatants, 8 scalar dilutions from 5 μg/ml", "value": "best performer"},
      {"measurement": "binding on confocal images", "setting": "[3]; confocal microscopy, FITC signal", "value": "recognize and bind β-1,3-glucans on the surface of C. auris"},
      {"measurement": "MFI fold of increase compared to control", "setting": "[3]; flow cytometry", "value": 164, "unit": "fold"},
      {"measurement": "events expressing the antigen (FITC positive)", "setting": "[3]; flow cytometry, 1 hour", "value": 97, "unit": "%"}
    ]}
  ]
}
